Experimental findings from paper doi:10.1101/2021.08.23.457303 (bioRxiv, 2021) are described below.

Assay [1] addresses T1, His-tagged human Bin1 isoform 8, wild type, full length (human, UniProt O00499-8 1-454).
T1 sequence: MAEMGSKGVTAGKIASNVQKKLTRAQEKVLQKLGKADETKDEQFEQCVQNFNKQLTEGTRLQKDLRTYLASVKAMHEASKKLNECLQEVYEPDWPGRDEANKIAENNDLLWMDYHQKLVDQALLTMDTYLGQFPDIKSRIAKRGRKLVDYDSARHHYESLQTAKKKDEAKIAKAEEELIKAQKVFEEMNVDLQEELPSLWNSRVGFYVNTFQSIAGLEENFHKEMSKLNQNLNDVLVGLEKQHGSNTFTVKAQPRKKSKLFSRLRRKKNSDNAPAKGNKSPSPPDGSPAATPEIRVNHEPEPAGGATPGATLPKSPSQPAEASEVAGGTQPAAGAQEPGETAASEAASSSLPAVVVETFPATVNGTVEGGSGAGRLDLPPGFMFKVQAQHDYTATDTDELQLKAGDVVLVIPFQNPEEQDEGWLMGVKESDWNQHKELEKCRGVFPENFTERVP
In words: pull-down.

Assay [2] concerns the target T2, His-tagged human Bin1 isoform 8 K436X (CNM-associated, truncated SH3 domain) (human, UniProt O00499-8 1-435).
T2 sequence: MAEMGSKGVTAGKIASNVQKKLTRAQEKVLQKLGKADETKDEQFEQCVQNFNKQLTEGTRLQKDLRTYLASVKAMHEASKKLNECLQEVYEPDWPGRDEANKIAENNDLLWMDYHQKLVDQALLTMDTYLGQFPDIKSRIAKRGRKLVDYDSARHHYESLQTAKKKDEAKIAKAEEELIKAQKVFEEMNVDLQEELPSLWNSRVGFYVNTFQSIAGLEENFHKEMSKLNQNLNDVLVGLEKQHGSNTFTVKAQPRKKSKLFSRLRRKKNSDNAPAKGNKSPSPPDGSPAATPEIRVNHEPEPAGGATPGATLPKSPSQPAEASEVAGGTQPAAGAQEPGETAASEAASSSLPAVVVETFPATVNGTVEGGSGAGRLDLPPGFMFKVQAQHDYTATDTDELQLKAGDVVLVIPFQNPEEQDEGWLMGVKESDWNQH
In words: pull-down.

B1: GST-tagged PRD domain of Dyn2 (domain or fragment)
chain: PVPPPVDDTWLQSASSHSPTPQRRPVSSIHPPGRPPAVRGPTPGPPLIPVPVGAAASFSAPPIPSRPGPQSVFANSDLFPAPPQIPSRPVRIPPGIPPGVPSRRPPAAPSRPTIIRPAEPSLLD
Regarding B1, the figures for the Kd in assay [1] and in assay [2] were 180 nM and 267 nM, respectively.
